Results on 24 molecules are retold here after US20220010021A1 (Sanofi, published 2022).

Positions count from the first letter of the chain named.

Test [1] concerns the target human FGFR1c + KLB receptor complex on HEK293 iLite FGF21 reporter cells (human, UniProt P11362 22-822; Q86Z14 1-1044). The test is described as follows: cell-based or functional assay.
A further test deals with T1, human beta-Klotho (KLB) (human, UniProt Q86Z14 53-997).
T1 construct: bought protein; also called human KLB
T1 sequence (looked up): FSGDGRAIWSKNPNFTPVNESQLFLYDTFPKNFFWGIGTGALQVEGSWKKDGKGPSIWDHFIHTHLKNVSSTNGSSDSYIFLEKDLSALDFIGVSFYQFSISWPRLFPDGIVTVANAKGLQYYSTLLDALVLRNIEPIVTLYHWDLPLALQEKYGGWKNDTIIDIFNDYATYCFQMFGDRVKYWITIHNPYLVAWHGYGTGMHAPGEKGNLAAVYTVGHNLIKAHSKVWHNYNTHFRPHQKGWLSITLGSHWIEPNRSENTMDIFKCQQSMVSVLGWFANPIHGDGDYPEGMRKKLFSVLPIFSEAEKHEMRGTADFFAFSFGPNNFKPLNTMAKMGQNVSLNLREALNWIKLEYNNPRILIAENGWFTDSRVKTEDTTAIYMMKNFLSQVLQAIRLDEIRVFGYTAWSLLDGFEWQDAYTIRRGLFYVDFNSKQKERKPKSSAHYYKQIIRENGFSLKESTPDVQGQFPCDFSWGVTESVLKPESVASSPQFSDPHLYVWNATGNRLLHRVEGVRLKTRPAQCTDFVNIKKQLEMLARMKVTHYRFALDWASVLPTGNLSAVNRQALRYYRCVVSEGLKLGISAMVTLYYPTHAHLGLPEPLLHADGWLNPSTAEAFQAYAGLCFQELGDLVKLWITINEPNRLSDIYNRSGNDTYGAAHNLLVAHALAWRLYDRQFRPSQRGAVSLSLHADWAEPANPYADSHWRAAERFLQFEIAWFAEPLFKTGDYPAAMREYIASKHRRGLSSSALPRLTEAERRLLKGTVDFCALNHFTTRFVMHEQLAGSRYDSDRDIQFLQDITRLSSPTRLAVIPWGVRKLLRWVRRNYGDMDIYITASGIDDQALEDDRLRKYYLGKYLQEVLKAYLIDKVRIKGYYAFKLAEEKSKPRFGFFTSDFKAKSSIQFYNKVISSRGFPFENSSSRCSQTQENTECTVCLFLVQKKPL
The test is described as follows: SPR. In general terms: In SPR one partner is held on a chip, and binding of the other changes the refractive index at the surface.
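Wherever koff is given: Anti-KLB antibodies captured on anti-human Fc CM5 chip, KLB injected as analyte, 180 s association and 1800 s dissociation, fitted to 1:1 binding model.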

human FGFR1c + KLB receptor complex on HEK293 iLite FGF21 reporter cells, sequence (P11362 22-822, chain 1 of 2): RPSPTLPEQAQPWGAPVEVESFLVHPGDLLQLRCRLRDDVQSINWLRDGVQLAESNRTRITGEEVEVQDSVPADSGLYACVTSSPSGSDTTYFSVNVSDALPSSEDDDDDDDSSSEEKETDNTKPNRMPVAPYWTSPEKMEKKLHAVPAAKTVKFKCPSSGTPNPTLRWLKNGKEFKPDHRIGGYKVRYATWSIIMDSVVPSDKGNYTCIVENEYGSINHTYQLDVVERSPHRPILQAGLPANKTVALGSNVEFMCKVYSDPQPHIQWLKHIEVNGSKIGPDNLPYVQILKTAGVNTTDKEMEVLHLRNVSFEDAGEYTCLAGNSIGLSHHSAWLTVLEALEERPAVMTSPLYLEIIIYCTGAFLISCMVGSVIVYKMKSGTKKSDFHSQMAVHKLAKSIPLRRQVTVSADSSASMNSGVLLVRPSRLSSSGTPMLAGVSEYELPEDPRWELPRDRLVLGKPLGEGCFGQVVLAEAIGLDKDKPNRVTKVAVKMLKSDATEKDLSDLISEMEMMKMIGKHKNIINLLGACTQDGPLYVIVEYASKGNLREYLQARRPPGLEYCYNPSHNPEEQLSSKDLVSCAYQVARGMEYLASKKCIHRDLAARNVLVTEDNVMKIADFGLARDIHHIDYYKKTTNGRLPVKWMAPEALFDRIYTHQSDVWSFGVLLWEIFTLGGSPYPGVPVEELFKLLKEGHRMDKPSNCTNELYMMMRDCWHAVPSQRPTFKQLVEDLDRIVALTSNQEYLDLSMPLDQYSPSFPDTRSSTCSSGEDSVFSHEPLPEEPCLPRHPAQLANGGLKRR
human FGFR1c + KLB receptor complex on HEK293 iLite FGF21 reporter cells, sequence (Q86Z14 whole entry, chain 2 of 2): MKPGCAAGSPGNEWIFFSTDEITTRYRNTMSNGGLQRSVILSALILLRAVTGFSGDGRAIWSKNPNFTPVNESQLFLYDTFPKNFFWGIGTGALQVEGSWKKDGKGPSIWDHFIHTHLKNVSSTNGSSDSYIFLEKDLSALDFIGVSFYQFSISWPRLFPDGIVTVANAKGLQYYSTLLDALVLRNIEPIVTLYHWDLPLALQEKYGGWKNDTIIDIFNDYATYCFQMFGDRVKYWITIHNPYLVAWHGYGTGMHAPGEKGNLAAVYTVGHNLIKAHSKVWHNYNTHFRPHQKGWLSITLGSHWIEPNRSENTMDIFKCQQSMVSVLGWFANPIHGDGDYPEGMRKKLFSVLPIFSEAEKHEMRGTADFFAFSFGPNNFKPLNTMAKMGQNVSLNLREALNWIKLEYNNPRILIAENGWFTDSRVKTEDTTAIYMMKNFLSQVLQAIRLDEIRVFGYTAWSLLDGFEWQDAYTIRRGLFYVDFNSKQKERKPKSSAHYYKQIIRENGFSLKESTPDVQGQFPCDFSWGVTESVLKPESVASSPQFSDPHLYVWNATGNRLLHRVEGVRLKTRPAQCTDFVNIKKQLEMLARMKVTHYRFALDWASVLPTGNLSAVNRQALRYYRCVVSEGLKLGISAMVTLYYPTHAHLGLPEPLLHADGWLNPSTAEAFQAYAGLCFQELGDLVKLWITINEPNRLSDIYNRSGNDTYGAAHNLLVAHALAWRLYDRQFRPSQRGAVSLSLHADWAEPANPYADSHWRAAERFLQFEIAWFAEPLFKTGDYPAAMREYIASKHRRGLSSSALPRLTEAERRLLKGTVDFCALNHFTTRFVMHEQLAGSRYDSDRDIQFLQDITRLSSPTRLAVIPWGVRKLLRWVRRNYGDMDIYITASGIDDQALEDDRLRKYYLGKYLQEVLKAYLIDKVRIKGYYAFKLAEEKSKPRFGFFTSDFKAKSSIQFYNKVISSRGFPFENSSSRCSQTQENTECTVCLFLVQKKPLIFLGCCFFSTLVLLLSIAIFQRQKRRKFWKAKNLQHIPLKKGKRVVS

B1: Ab0310 (antibody, IgG4, V domains shown)
VH: QVTLKESGPVLVKPTETLTLTCTVSGFSLNNARVGVSWIRQPPGKALEWLAHIFSNDEKSYSTSLKSRLTISKDTSKSQVVLTMTNMDPVDTATYYCARSVVTGGYYYEGMDVWGQGTTVTVSS
VL: SYVLTQPPSVSVAPGQTARITCGGSNIGSESVHWYQQKPGQAPVLVVYDESDRPSGIPERFSGSNSGNTATLTISRVEAGDEADYYCQVWDGESDHVVFGGGTKLTVLG
notes: IgG4 PE
The EC50 is the concentration giving half of the maximal effect. The Emax is the greatest response seen or fitted, relative to the assay's reference. Usually koff stands for the first-order rate constant of dissociation. A higher koff goes with a short-lived complex. As for B1, in test [1], the EC50 was 0.05 nM and the Emax was determined as 1080%. Moreover, the koff with human beta-Klotho (KLB) was found to be 0.00116 s⁻¹.

B2: Ab0338 (antibody, IgG4, V domains shown)
VH: B1 VH
VL: B1 VL with D49S, E50S, D91A, E93S
notes: IgG4 PE
Consider B2, for which, in test [1], the EC50 was found to be 0.06 nM and the Emax is 971%. This molecule also returned a koff with human beta-Klotho (KLB) of 0.000429 s⁻¹.

B3: Ab0326 (antibody, IgG4, V domains shown)
VH: B1 VH
VL: B1 VL with D49Y, D91E, E93S
notes: IgG4 PE
Turning to B3, in test [1], the EC50 came out at 0.07 nM and the Emax worked out at 1010%. Also, the koff in the test with human beta-Klotho (KLB) was 0.00175 s⁻¹.

B4: Ab0314 (antibody, IgG4, V domains shown)
VH: B1 VH
VL: B1 VL with E50D, D91T
notes: IgG4 PE
As for B4, in test [1], the EC50 was found to be 0.05 nM and the Emax was 1110%. For the same molecule, in the test with human beta-Klotho (KLB), the koff was 0.000402 s⁻¹.

B5: Ab0327 (antibody, IgG4, V domains shown)
VH: B1 VH
VL: B1 VL with D49Y, E50Y, D91E
notes: IgG4 PE
Regarding B5, in test [1], the EC50 turned out to be 0.05 nM and the Emax was 995%. This molecule came in with a koff with human beta-Klotho (KLB) of 0.000346 s⁻¹.

B6: Ab0416 (antibody, IgG4, V domains shown)
VH: B1 VH
VL: B1 VL with D49Y, D91E
notes: IgG4 PE
As for B6, in test [1], the EC50 was 0.05 nM and the Emax was determined as 863%. In the test with human beta-Klotho (KLB), the koff came out at 0.00107 s⁻¹.

B7: Ab0364 (antibody, IgG4, V domains shown)
VH: B1 VH
VL: B1 VL with S25A, D49E, D91E, E93S
notes: IgG4 PE
As for B7, in test [1], the EC50 is 0.11 nM and the Emax amounted to 991%. The koff with human beta-Klotho (KLB) worked out at 0.00169 s⁻¹.

B8: Ab0345 (antibody, IgG4, V domains shown)
VH: B1 VH
VL: B1 VL with D49A, E50A, D91E, E93A
notes: IgG4 PE
On to B8, for which, in test [1], the EC50 was 0.07 nM and the Emax is 908%. The molecule also displayed a koff with human beta-Klotho (KLB) of 0.00188 s⁻¹.

B9: Ab0353 (antibody, IgG4, V domains shown)
VH: B1 VH
VL: B1 VL with D49E, D91E, E93A
notes: IgG4 PE
B9: in test [1], the EC50 is 0.08 nM and the Emax was found to be 895%. The molecule also displayed a koff with human beta-Klotho (KLB) of 0.00038 s⁻¹.

B10: Ab0337 (antibody, IgG4, V domains shown)
VH: B1 VH
VL: B1 VL with D49S, E50H, D91E
notes: IgG4 PE
As to B10, in test [1], the EC50 was determined as 0.06 nM and the Emax was determined as 1030%. Also, in the test with human beta-Klotho (KLB), the koff was 0.00053 s⁻¹.

B11: Ab0361 (antibody, IgG4, V domains shown)
VH: B1 VH
VL: B1 VL with D49E, E50S, D91E, E93S
notes: IgG4 PE
For B11, in test [1], the EC50 was determined as 0.07 nM and the Emax was determined as 986%. In the test with human beta-Klotho (KLB), this molecule yielded a koff of 0.00163 s⁻¹.

B12: Ab0332 (antibody, IgG4, V domains shown)
VH: B1 VH
VL: B1 VL with D49S, D91E, E93A
notes: IgG4 PE
As to B12, in test [1], the EC50 worked out at 0.05 nM and the Emax worked out at 995%. This molecule also yielded a koff with human beta-Klotho (KLB) of 0.00143 s⁻¹.

B13: Ab0340 (antibody, IgG4, V domains shown)
VH: B1 VH
VL: B1 VL with D49A, D91E, E93S
notes: IgG4 PE
On to B13, for which, in test [1], the EC50 turned out to be 0.05 nM and the Emax came out at 912%. In the test with human beta-Klotho (KLB), this molecule registered a koff of 0.00176 s⁻¹.

B14: Ab0344 (antibody, IgG4, V domains shown)
VH: B1 VH
VL: B1 VL with D49A, E50A, D91E, E93S
notes: IgG4 PE
On to B14, for which, in test [1], the EC50 came out at 0.07 nM and the Emax turned out to be 958%. The koff in the test with human beta-Klotho (KLB) is 0.00168 s⁻¹.

B15: Ab0311 (antibody, IgG4, V domains shown)
VH: B1 VH
VL: B1 VL with S25N, D49Y
notes: IgG4 PE
Regarding B15, in test [1], the EC50 stood at 0.05 nM and the Emax came to 1080%. The same molecule yielded a koff with human beta-Klotho (KLB) of 0.0013 s⁻¹.

B16: Ab0312 (antibody, IgG4, V domains shown)
VH: B1 VH
VL: B1 VL with D49Y
notes: IgG4 PE
B16: in test [1], the EC50 is 0.07 nM and the Emax is 1010%. Also, in the test with human beta-Klotho (KLB), the koff is 0.00053 s⁻¹.

B17: Ab0358 (antibody, IgG4, V domains shown)
VH: B1 VH
VL: B1 VL with D49E, E50A, D91H, E93S
notes: IgG4 PE
Take B17: in test [1], the EC50 was found to be 0.07 nM and the Emax came out at 858%. Also, the koff with human beta-Klotho (KLB) turned out to be 0.000454 s⁻¹.

B18: Ab0360 (antibody, IgG4, V domains shown)
VH: B1 VH
VL: B1 VL with D49E, E50H, D91E, E93S
notes: IgG4 PE
In the case of B18, in test [1], the EC50 was found to be 0.08 nM and the Emax was 845%. The same molecule had a koff with human beta-Klotho (KLB) of 0.00192 s⁻¹.

B19: Ab0417 (antibody, IgG4, V domains shown)
VH: B1 VH
VL: B1 VL with D49Y, D91H
notes: IgG4 PE
As to B19, in test [1], the EC50 is 0.06 nM and the Emax was 1110%. In the test with human beta-Klotho (KLB), the koff amounted to 0.000303 s⁻¹.

B20: Ab0333 (antibody, IgG4, V domains shown)
VH: B1 VH
VL: B1 VL with D49S, E50Y, D91A, E93S
notes: IgG4 PE
For B20, in test [1], the EC50 came to 0.2 nM and the Emax was 769%. In the test with human beta-Klotho (KLB), this molecule came in with a koff of 0.000251 s⁻¹.

B21: Ab0355 (antibody, IgG4, V domains shown)
VH: B1 VH
VL: B1 VL with D49E, E50Y, D91E, E93S
notes: IgG4 PE
B21: in test [1], the EC50 stood at 0.07 nM and the Emax is 829%. The molecule further came in with a koff with human beta-Klotho (KLB) of 0.00195 s⁻¹.

B22: Ab0352 (antibody, IgG4, V domains shown)
VH: B1 VH
VL: B1 VL with D49E, D91E, E93S
notes: IgG4 PE
Take B22: in test [1], the EC50 is 0.07 nM and the Emax came to 1010%. This molecule displayed a koff with human beta-Klotho (KLB) of 0.000419 s⁻¹.

B23: Ab0354 (antibody, IgG4, V domains shown)
VH: B1 VH
VL: B1 VL with D49E, D91H, E93S
notes: IgG4 PE
As for B23, in test [1], the EC50 turned out to be 0.07 nM and the Emax was 878%. Further, in the test with human beta-Klotho (KLB), the koff stood at 0.00158 s⁻¹.

B24: Ab0357 (antibody, IgG4, V domains shown)
VH: B1 VH
VL: B1 VL with D49E, E50A, D91E, E93S
notes: IgG4 PE
Regarding B24, in test [1], the EC50 was 0.08 nM and the Emax was 893%. Moreover, the koff with human beta-Klotho (KLB) amounted to 0.00185 s⁻¹.
